Results reported in patent US20170290876A1 (Novartis, published 2017).
Blank lines part the entries; values can stand above or below the binder they belong to.

Columns and labels:
human Factor P = biological target: T1, human Factor P (human, UniProt P27918 28-469, biotinylated (site not stated)); experiment: Biacore SPR, Hu factor P-biotin, 37 C
T1 construct: also called Factor P-biotin; Hu factor P-biotin

human VEGF [1] = biological target: T2, human VEGF (human, UniProt P15692 207-395, biotinylated (site not stated)); experiment: Biacore SPR, Hu VEGF-biotin, 25 C
T2 construct: Biotinylated human VEGF generated internally; also called hVEGF; hVEGF-biotin
T2 sequence: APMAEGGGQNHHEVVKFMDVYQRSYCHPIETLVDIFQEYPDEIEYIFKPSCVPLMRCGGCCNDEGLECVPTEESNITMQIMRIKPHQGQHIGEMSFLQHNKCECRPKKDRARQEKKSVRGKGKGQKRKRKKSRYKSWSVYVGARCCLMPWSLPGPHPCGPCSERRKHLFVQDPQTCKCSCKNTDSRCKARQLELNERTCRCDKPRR

human VEGF [2] = biological target: T2, human VEGF; experiment: Biacore SPR, human VEGF
Description: In order to determine target kinetics, two different formats were utilized. […] The second format is an anti-fab capture method in which the fab protein samples are captured and the target proteins flowed over at various concentrations.
The sample compartment which includes the analytes, ligands, and regeneration buffer, is kept at 15° C. All other running conditions were carried out at either 25° C. or 37° C. in 1×HBSE+P buffer. […] Data was collected at 10 Hz and analyzed using the Biacore T200 Evaluation Software (GE Healthcare®). This program uses a global fitting analysis method for the determination of rate and affinity constants for each interaction.

human VEGF [3] = biological target: T2, human VEGF; experiment: Biacore SPR, hVEGF-biotin, 25 C
human VEGF [4] = biological target: T2, human VEGF; experiment: Biacore SPR, hVEGF
human TNFα = biological target: T3, human TNFα (human, UniProt P01375 77-233, biotinylated (site not stated)); experiment: Biacore SPR, Hu TNFα-biotin, 37 C
T3 construct: also called TNFα-biotin; Hu TNFα-biotin
T3 sequence (P01375 77-233 limits assumed): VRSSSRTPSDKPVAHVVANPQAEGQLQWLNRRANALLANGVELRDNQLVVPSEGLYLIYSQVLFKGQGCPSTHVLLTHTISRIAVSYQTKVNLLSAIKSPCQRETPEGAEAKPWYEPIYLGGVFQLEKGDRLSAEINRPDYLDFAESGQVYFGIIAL

T1 sequence (P27918 28-469 limits assumed): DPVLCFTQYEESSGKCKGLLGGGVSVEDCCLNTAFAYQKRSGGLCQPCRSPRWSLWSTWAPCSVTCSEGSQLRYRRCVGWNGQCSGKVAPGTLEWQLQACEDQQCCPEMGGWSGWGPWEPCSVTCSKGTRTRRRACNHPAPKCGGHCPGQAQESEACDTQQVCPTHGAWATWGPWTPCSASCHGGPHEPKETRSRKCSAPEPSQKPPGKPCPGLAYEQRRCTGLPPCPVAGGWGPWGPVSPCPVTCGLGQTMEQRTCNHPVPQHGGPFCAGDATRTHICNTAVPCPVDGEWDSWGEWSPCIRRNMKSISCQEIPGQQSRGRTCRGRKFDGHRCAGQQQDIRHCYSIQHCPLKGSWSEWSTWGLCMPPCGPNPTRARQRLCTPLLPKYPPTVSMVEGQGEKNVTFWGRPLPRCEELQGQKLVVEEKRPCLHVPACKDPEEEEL

B1: NVS71 (Fab, V domains shown)
VH: EVQLVQSGAEVKKPGSSVKVSCKASGGTFSSYAISWVRQAPGQGLEWMGRIIPIFGTANYAQKFQGRVTITADESTSTAYMELSSLRSEDTAVYYCARHGGYSFDSWGQGTLVTVSS
VL: SYELTQPPSVSVAPGQTARISCSGDNLGSKYVDWYQQKPGQAPVLVIYSDNNRPSGIPERFSGSNSGNTATLTISGTQAEDEADYYCQTYTSGNNYLVFGGGTKLTVLG
notes: Untagged anti-Factor P Fab
Kd (human Factor P): 543 pM | koff (human Factor P): 0.00161 s⁻¹ | kon (human Factor P): 2.96e+06 M⁻¹ s⁻¹

B4: NVS1j (Fab)
heavy: EVQLVESGGGLVQPGGSLRLSCTASGFSLTDYYYMTWVRQAPGKGLEWVGFIDPDDDPYYATWAKGRFTISRDNSKNTLYLQMNSLRAEDTAVYYCAGGDHNSGWGLDIWGQGTLVTVSSASTKGPSVFPLAPSSKSTSGGTAALGCLVKDYFPEPVTVSWNSGALTSGVHTFPAVLQSSGLYSLSSVVTVPSSSLGTQTYICNVNHKPSNTKVDKRVEPKSC
light: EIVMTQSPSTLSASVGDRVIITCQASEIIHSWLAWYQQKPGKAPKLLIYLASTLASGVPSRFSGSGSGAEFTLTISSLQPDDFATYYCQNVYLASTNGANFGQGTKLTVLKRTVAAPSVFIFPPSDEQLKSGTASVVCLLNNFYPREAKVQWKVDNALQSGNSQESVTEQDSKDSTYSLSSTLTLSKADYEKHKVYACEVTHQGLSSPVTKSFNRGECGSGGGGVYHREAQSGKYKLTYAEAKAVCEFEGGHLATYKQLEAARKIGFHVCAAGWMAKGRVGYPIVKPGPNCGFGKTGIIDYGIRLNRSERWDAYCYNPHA
notes: NVS4 with HA tag at the light chain C-terminus
Kd (human VEGF [3]): 5.64 pM | koff (human VEGF [3]): 0.000172 s⁻¹ | kon (human VEGF [3]): 3.05e+07 M⁻¹ s⁻¹

B6: NVS36 (Fab)
heavy: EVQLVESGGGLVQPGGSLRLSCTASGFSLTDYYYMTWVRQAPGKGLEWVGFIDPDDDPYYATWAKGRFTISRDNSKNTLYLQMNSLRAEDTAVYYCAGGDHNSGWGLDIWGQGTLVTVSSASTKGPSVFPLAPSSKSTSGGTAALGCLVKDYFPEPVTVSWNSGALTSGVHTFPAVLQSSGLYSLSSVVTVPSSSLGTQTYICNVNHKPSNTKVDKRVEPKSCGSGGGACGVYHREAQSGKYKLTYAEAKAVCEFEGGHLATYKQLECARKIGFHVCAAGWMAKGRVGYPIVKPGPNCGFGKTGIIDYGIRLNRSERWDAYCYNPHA
light: EIVMTQSPSTLSASVGDRVIITCQASEIIHSWLAWYQQKPGKAPKLLIYLASTLASGVPSRFSGSGSGAEFTLTISSLQPDDFATYYCQNVYLASTNGANFGQGTKLTVLKRTVAAPSVFIFPPSDEQLKSGTASVVCLLNNFYPREAKVQWKVDNALQSGNSQESVTEQDSKDSTYSLSSTLTLSKADYEKHKVYACEVTHQGLSSPVTKSFNRGEC
notes: NVS4 Fab with HA11 tag; also called NVS4 linked to tag NVS-A
Kd (human VEGF [4]): 4.13 pM | koff (human VEGF [4]): 0.000257 s⁻¹ | kon (human VEGF [4]): 6.23e+07 M⁻¹ s⁻¹ | Kd (human VEGF [2]): 0.656 pM | koff (human VEGF [2]): 2.5e-05 s⁻¹ | kon (human VEGF [2]): 3.81e+07 M⁻¹ s⁻¹

B7: NVS1g (Fab)
heavy: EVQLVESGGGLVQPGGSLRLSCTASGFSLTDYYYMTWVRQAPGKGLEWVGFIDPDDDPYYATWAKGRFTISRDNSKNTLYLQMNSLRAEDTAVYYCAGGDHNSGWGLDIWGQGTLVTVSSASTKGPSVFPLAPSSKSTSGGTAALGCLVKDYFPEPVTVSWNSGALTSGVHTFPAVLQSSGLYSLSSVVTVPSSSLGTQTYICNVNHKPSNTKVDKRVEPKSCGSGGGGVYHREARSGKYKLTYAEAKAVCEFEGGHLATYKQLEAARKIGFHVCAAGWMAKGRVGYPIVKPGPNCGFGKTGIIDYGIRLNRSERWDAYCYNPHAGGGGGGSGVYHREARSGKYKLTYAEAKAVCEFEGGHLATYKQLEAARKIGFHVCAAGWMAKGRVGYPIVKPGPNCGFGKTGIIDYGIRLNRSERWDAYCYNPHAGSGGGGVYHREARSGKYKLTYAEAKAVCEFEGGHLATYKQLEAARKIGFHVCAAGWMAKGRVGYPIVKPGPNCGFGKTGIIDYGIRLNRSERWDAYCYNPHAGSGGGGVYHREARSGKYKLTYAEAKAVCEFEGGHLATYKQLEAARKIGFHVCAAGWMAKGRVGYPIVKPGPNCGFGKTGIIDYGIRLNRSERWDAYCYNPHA
light: EIVMTQSPSTLSASVGDRVIITCQASEIIHSWLAWYQQKPGKAPKLLIYLASTLASGVPSRFSGSGSGAEFTLTISSLQPDDFATYYCQNVYLASTNGANFGQGTKLTVLKRTVAAPSVFIFPPSDEQLKSGTASVVCLLNNFYPREAKVQWKVDNALQSGNSQESVTEQDSKDSTYSLSSTLTLSKADYEKHKVYACEVTHQGLSSPVTKSFNRGEC
notes: NVS4 with four tandem HA tags at the heavy chain C-terminus
Kd (human VEGF [3]): 5.46 pM | kon (human VEGF [3]): 614000 M⁻¹ s⁻¹

B8: NVS1 (Fab)
heavy: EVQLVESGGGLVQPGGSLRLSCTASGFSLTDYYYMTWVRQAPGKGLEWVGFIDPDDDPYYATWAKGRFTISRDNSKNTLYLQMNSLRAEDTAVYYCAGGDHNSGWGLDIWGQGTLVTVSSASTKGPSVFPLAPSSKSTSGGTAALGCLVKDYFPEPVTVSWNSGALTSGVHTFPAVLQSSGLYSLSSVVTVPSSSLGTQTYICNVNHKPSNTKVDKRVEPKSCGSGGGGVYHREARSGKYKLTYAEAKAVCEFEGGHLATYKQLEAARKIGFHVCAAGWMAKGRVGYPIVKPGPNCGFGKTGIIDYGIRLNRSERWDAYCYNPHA
light: EIVMTQSPSTLSASVGDRVIITCQASEIIHSWLAWYQQKPGKAPKLLIYLASTLASGVPSRFSGSGSGAEFTLTISSLQPDDFATYYCQNVYLASTNGANFGQGTKLTVLKRTVAAPSVFIFPPSDEQLKSGTASVVCLLNNFYPREAKVQWKVDNALQSGNSQESVTEQDSKDSTYSLSSTLTLSKADYEKHKVYACEVTHQGLSSPVTKSFNRGEC
notes: NVS4 Fab with HA10 tag via GSGGG at heavy chain C-terminus
Kd (human VEGF [2]): 0.176 pM | koff (human VEGF [2]): 1.01e-05 s⁻¹ | kon (human VEGF [2]): 5.75e+07 M⁻¹ s⁻¹

B9: NVS37 (Fab)
heavy: EVQLVESGGGLVQPGGSLRLSCTASGFSLTDYYYMTWVRQAPGKGLEWVGFIDPDDDPYYATWAKGRFTISRDNSKNTLYLQMNSLRAEDTAVYYCAGGDHNSGWGLDIWGQGTLVTVSSASTKGPSVFPLAPSSKSTSGGTAALGCLVKDYFPEPVTVSWNSGALTSGVHTFPAVLQSSGLYSLSSVVTVPSSSLGTQTYICNVNHKPSNTKVDKRVEPKSCGSGGGGVYHREAQSGKYKLTYAEAKAVCEFEGGHLCTYKQLEAARKIGFHVCAAGWMAKGRVGYPIVKPGPNCGFGKTGIIDYGIRLNRSERWDAYCCNPHA
light: EIVMTQSPSTLSASVGDRVIITCQASEIIHSWLAWYQQKPGKAPKLLIYLASTLASGVPSRFSGSGSGAEFTLTISSLQPDDFATYYCQNVYLASTNGANFGQGTKLTVLKRTVAAPSVFIFPPSDEQLKSGTASVVCLLNNFYPREAKVQWKVDNALQSGNSQESVTEQDSKDSTYSLSSTLTLSKADYEKHKVYACEVTHQGLSSPVTKSFNRGEC
notes: NVS4 Fab with HA11.1 tag
Kd (human VEGF [2]): 3.07 pM | koff (human VEGF [2]): 7.21e-05 s⁻¹ | kon (human VEGF [2]): 2.35e+07 M⁻¹ s⁻¹

B11: NVS2 (Fab)
heavy: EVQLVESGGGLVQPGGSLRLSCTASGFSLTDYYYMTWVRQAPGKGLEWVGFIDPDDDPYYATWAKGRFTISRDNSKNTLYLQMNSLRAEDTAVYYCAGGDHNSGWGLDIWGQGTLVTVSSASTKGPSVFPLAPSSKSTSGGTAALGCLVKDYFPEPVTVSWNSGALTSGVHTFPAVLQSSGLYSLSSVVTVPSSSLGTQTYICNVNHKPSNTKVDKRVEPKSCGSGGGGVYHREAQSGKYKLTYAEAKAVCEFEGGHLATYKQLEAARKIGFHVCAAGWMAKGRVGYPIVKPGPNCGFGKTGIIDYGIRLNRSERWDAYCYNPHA
light: EIVMTQSPSTLSASVGDRVIITCQASEIIHSWLAWYQQKPGKAPKLLIYLASTLASGVPSRFSGSGSGAEFTLTISSLQPDDFATYYCQNVYLASTNGANFGQGTKLTVLKRTVAAPSVFIFPPSDEQLKSGTASVVCLLNNFYPREAKVQWKVDNALQSGNSQESVTEQDSKDSTYSLSSTLTLSKADYEKHKVYACEVTHQGLSSPVTKSFNRGEC
notes: NVS4 Fab with HA10.1 tag at heavy chain C-terminus
Kd (human VEGF [2]): 0.195 pM | koff (human VEGF [2]): 1.05e-05 s⁻¹ | kon (human VEGF [2]): 5.36e+07 M⁻¹ s⁻¹

B12: NVS105 (Fab)
heavy: QVQLVESGGGLVQPGGSLRLSCTASGFSLTDYYYMTWVRQAPGKGLEWVGFIDPDDDPYYATWAKGRFTISRDNSKNTLYLQMNSLRAEDTAVYYCAGGDHNSGWGLDIWGQGTLVTVSSASTKGPSVFPLAPSSKSTSGGTAALGCLVKDYFPEPVTVSWNSGALTSGVHTFPAVLQSSGLYSLSSVVTVPSSSLGTQTYICNVNHKPSNTKVDKRVEPKSCGSGGGACGVYHREAQSGKYYLTYAEAKAVCEFEGGHLATYKQLLCAQKIGFHVCAAGWMAKGRVGYPIVKPGPNCGFGKTGIIDYGIRLNRSERWDAYCYNPHA
light: DIVMTQSPSTLSASVGDRVIITCQASEIIHSWLAWYQQKPGKAPKLLIYLASTLASGVPSRFSGSGSGAEFTLTISSLQPDDFATYYCQNVYLASTNGANFGQGTKLTVLKRTVAAPSVFIFPPSDEQLKSGTASVVCLLNNFYPREAKVQWKVDNALQSGNSQESVTEQDSKDSTYSLSSTLTLSKADYEKHKVYACEVTHQGLSSPVTKSFNRGECGSGGGACGVYHREAQSGKYYLTYAEAKAVCEFEGGHLATYKQLLCAQKIGFHVCAAGWMAKGRVGYPIVKPGPNCGFGKTGIIDYGIRLNRSERWDAYCYNPHA
notes: Tag NVS-AX at the C-terminus of NVS4 heavy and light chains
Kd (human VEGF [4]): 0.13 pM | koff (human VEGF [4]): 3.97e-05 s⁻¹ | kon (human VEGF [4]): 3.06e+08 M⁻¹ s⁻¹

B13: NVS107 (Fab)
heavy: EVQLVESGGGLVQPGGSLRLSCTASGFSLTNYYYMTWVRQAPGKGLEWVGFIDPQNDPYYATWAKGRFTISRDNSKNTLYLQMNSLRAEDTAVYYCAGGNHNSGWGLNIWGQGTLVTVSSASTKGPSVFPLAPSSKSTSGGTAALGCLVKDYFPEPVTVSWNSGALTSGVHTFPAVLQSSGLYSLSSVVTVPSSSLGTQTYICNVNHKPSNTKVDKRVEPKSCGSGGGACGVYHREAQSGKYYLTYAEAKAVCEFEGGHLATYKQLLCAQKIGFHVCAAGWMAKGRVGYPIVKPGPNCGFGKTGIIDYGIRLNRSERWDAYCYNPHA
light: EIVMTQSPSTLSASVGDRVIITCQASQKIHSWLAWYQQKPGKAPKLLIYQASKLAKGVPSRFSGSGSGAEFTLTISSLQPDDFATYYCQNVYLASTNGANFGQGTKLTVLKRTVAAPSVFIFPPSDEQLKSGTASVVCLLNNFYPREAKVQWKVDNALQSGNSQESVTEQDSKDSTYSLSSTLTLSKADYEKHKVYACEVTHQGLSSPVTKSFNRGECGSGGGACGVYHREAQSGKYYLTYAEAKAVCEFEGGHLATYKQLLCAQKIGFHVCAAGWMAKGRVGYPIVKPGPNCGFGKTGIIDYGIRLNRSERWDAYCYNPHA
notes: Tag NVS-AX at the C-terminus of the LC2 light chain and the HC4 heavy chain
Kd (human VEGF [4]): 0.741 pM | koff (human VEGF [4]): 0.000104 s⁻¹ | kon (human VEGF [4]): 1.41e+08 M⁻¹ s⁻¹

B14: NVS73 (Fab, V domains shown)
VH: EVQLVESGGGSVQPGGSLRLSCTASGFTISRSYWICWVRQAPGKGLEWVGCIYGDNDITPLYANWAKGRFTISRDTSKNTVYLQMNSLRAEDTATYYCARLGYADYAYDLWGQGTTVTVSS
VL: EIVMTQSPSTLSASVGDRVIITCQSSQSVYGNIWMAWYQQKPGRAPKLLIYQASKLASGVPSRFSGSGSGAEFTLTISSLQPDDFATYYCQGNFNTGDRYAFGQGTKLTVLK
notes: Untagged anti-TNFα Fab
Kd (human TNFα): 26 pM | koff (human TNFα): 8.01e-05 s⁻¹ | kon (human TNFα): 3.08e+06 M⁻¹ s⁻¹

The remaining lines, values ahead:

Kd (human VEGF [1]): 419 pM | koff (human VEGF [1]): 0.00168 s⁻¹ | kon (human VEGF [1]): 4.01e+06 M⁻¹ s⁻¹
B2: NVS84 (designed binder)
chain: SDLGKKLLEAARAGQDDEVRILMANGADVNTADSTGWTPLHLAVPWGHLEIVEVLLKYGADVNAKDFQGWTPLHLAAAIGHQEIVEVLLKNGADVNAQDKFGKTAFDISIDNGNEDLAEILQKAAGSLPETGGGSGHHHHHH
notes: Untagged anti-VEGF DARPin

Kd (human VEGF [2]): 5.1 pM | koff (human VEGF [2]): 1.38e-05 s⁻¹ | kon (human VEGF [2]): 2.71e+06 M⁻¹ s⁻¹
B3: NVS4 (Fab)
heavy: EVQLVESGGGLVQPGGSLRLSCTASGFSLTDYYYMTWVRQAPGKGLEWVGFIDPDDDPYYATWAKGRFTISRDNSKNTLYLQMNSLRAEDTAVYYCAGGDHNSGWGLDIWGQGTLVTVSSASTKGPSVFPLAPSSKSTSGGTAALGCLVKDYFPEPVTVSWNSGALTSGVHTFPAVLQSSGLYSLSSVVTVPSSSLGTQTYICNVNHKPSNTKVDKRVEPKSC
light: EIVMTQSPSTLSASVGDRVIITCQASEIIHSWLAWYQQKPGKAPKLLIYLASTLASGVPSRFSGSGSGAEFTLTISSLQPDDFATYYCQNVYLASTNGANFGQGTKLTVLKRTVAAPSVFIFPPSDEQLKSGTASVVCLLNNFYPREAKVQWKVDNALQSGNSQESVTEQDSKDSTYSLSSTLTLSKADYEKHKVYACEVTHQGLSSPVTKSFNRGEC
notes: Fab version of the 1008 scFv; also called untagged anti-VEGF Fab

Kd (human VEGF [3]): 0.558 pM | koff (human VEGF [3]): 8.76e-06 s⁻¹ | kon (human VEGF [3]): 1.57e+07 M⁻¹ s⁻¹
B5: NVS1h (Fab)
heavy: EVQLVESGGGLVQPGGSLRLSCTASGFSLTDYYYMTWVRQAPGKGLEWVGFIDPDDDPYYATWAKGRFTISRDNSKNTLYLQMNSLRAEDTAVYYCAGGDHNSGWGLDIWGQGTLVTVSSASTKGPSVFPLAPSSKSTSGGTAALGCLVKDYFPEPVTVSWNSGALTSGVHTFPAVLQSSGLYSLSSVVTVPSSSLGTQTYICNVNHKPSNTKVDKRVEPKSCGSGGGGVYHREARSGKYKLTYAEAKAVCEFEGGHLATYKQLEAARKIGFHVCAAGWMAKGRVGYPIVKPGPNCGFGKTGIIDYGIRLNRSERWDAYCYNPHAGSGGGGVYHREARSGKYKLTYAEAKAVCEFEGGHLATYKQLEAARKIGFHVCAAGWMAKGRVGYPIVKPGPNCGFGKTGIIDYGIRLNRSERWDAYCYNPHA
light: EIVMTQSPSTLSASVGDRVIITCQASEIIHSWLAWYQQKPGKAPKLLIYLASTLASGVPSRFSGSGSGAEFTLTISSLQPDDFATYYCQNVYLASTNGANFGQGTKLTVLKRTVAAPSVFIFPPSDEQLKSGTASVVCLLNNFYPREAKVQWKVDNALQSGNSQESVTEQDSKDSTYSLSSTLTLSKADYEKHKVYACEVTHQGLSSPVTKSFNRGEC
notes: NVS4 with tandem HA tags at the heavy chain C-terminus

Kd (human VEGF [2]): 0.161 pM | koff (human VEGF [2]): 1.19e-05 s⁻¹ | kon (human VEGF [2]): 7.39e+07 M⁻¹ s⁻¹
B10: NVS3 (Fab)
heavy: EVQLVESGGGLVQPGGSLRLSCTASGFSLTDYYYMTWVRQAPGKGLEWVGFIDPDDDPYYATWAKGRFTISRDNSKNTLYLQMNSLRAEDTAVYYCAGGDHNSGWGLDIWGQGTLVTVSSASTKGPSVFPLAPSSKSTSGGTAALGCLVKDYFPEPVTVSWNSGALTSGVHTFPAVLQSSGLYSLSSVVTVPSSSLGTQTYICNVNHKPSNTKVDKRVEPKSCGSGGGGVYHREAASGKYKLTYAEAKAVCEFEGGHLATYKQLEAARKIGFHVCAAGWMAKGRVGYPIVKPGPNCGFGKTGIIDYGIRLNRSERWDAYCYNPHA
light: EIVMTQSPSTLSASVGDRVIITCQASEIIHSWLAWYQQKPGKAPKLLIYLASTLASGVPSRFSGSGSGAEFTLTISSLQPDDFATYYCQNVYLASTNGANFGQGTKLTVLKRTVAAPSVFIFPPSDEQLKSGTASVVCLLNNFYPREAKVQWKVDNALQSGNSQESVTEQDSKDSTYSLSSTLTLSKADYEKHKVYACEVTHQGLSSPVTKSFNRGEC
notes: NVS4 Fab with HA10.2 tag at heavy chain C-terminus
